Patent publication US20250114467A1 (SHANGHAI FUDAN ZHANGJIANG BIO PHARMACEUTICAL, published 2025)
Substitutions are numbered along the chain they refer to.

T1: human DLL1 (purchased from Acro, DL1-H52H8) (human, UniProt O00548 18-540)
T1 construct: Bought; also called hDLL1
T1 sequence (looked up): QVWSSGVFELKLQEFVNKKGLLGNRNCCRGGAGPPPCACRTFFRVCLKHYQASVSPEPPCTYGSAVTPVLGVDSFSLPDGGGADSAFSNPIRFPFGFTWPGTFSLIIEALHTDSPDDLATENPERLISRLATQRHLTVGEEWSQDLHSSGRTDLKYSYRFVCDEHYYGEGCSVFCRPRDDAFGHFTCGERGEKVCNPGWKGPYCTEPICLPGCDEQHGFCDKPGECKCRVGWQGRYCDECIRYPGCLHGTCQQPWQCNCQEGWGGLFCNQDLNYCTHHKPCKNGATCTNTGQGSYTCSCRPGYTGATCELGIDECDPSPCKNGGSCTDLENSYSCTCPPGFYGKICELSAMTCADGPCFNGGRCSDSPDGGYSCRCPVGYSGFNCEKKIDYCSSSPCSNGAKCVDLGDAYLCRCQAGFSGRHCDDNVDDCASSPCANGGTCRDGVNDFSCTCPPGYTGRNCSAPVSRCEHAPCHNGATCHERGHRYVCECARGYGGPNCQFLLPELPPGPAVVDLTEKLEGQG

T2: mouse DLL3 on overexpressing cells (plasmid pCMV3-mDLL3, MG58052-UT) (mouse, UniProt O88516 33-592)
T2 construct: whole, on cells
T2 sequence (looked up): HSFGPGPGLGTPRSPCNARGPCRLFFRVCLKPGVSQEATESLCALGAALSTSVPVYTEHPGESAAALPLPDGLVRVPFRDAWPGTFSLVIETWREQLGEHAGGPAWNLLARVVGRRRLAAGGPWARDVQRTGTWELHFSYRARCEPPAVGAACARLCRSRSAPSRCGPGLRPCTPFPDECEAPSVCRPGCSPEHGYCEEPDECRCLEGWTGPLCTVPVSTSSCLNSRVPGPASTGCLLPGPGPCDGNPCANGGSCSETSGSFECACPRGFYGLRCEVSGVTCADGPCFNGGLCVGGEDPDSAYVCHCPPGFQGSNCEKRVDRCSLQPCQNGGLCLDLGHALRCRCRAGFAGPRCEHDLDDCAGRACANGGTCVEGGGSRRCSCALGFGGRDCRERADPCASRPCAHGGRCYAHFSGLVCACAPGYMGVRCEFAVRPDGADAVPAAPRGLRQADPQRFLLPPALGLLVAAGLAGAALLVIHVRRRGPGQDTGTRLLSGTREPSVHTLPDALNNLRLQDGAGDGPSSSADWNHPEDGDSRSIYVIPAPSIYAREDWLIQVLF

B1: ch6A2 (antibody, human IgG1, kappa, V domains shown)
VH: EVQLQQSGPELVKPGASVKISCKASGYTFTDYNMNWVKQSQGKSLEWIGYIYPYNGGTGYNQKFKTKATLTVDNSSSTAYMEFRSLTSEDSAVYYCARSDPYYTMDYWGQGTSVTVSS
VL: IIVMTQTPKFLLVSAGDRVTISCKASQSVNNDVAWYQQKPGQSPKLLIYFTSNRFTGVPDRFTGSGYGTDFTFTISSVQAEDLAVYFCQQDHNSPYTFGGGTKLEIKR
notes: Chimeric: murine variable regions on human IgG1 heavy and kappa light constant regions; also called chimeric antibody 6A2
B2: ch10B1 (antibody, human IgG1, kappa, V domains shown)
VH: DVKLVESGGGLVKPGGSLKLSCAASGFTFSNYTISWVRQTPEKRLEWVATFSSGGSYTYYSDSVKGRFTISRDNAKNTLYLQMSSLKSEDTAMYYCSRDRRSDGYYHLYAMDYWGQGTSVTVSS
VL: DIQMTQTTSSLSASLGDRVTISCRASQDISHYLNWYQQKPDGTVKLLIYYTSRLHSGVPSRFSGSGSGTAYSLTISNLEQEDIATYFCQQGYTLPLTFGAGTKLELKR
notes: Chimeric: murine variable regions on human IgG1 heavy and kappa light constant regions; also called chimeric antibody 10B1
B3: ch23G2 (antibody, human IgG1, kappa, V domains shown)
VH: QVQLQQSGPELVRPGVSVKISCKGSGYTFTDYAIHWVKQSRAKSPEWIGIVSTDSGKTSFNQKFKGKATMTVDKSSTTAYMELVRLTSEDSAIYYCARNPYYDYDGYAMDYWGQGTSVTVSS
VL: DIQMTQSSSYLSVSLGGRVTIICKASDHINNWLAWYQQKPGNAPRLIISGATSLETGVPSRFSGSGSGKDYTLSITSLQTEDVATYYCQQYWSIPYTFGGGTKLEIKR
notes: Chimeric: murine variable regions on human IgG1 heavy and kappa light constant regions; also called chimeric antibody 23G2
B4: ch13C2 (antibody, human IgG1, kappa, V domains shown)
VH: EVKLVESGGGLVKPGGSLKLSCAASGFAFSSYDMSWVRQTPEKRLEWVATISSGGSYTYYPDSVKGRFTISRDNGRNTLYLQMSSLRSEDTALYYCASPLLGLRFAYWGQGTLVTVSA
VL: QAVVTQESALTTSPGETVTLTCRSSTGAVTTINYANWVQEKPDHLFTGLIGGTNNRAPGVPARFSGSLIGDKAALTITGAQTEDEAIYFCALYYSNHWVFGGGTKLTVLR
notes: Chimeric: murine variable regions on human IgG1 heavy and kappa light constant regions; also called chimeric antibody 13C2
B5: ch15G2 (antibody, human IgG1, kappa, V domains shown)
VH: EVQLQQSGPELEKPGASVRISCKASGYSFTDYNMHWVKQSNGKSLEWIGNIDPYYGGTNYNQKFEGKATLTVDKSSSTAYMQLKSLTSEDSAVYYCARGGNNYGDYWGQGTTLTVSS
VL: DIQMTQSPASLAASVGETVTITCRASENIYYSLAWYQQKQGKSPQLLIFNANSLEDGVPSRFSGSGSGTQYSMKINSMQPEDTATYFCKQAYDVPWTFGGGTKLEIKR
notes: Chimeric: murine variable regions on human IgG1 heavy and kappa light constant regions; also called chimeric antibody 15G2
B6: ch32E8 (antibody, human IgG1, kappa, V domains shown)
VH: QVTLKESGPGILQPSQTLSLTCSFSGFSLSTSGMGVGWIRQPSGKGLEWLALIWWDDVKRYHPALKSRLTISKDTSSSQVFLKIASVDTADTATYYCARIAEVTGQVGLHYAMDYWGQGTSVTVSS
VL: QTVLTQSPAIMSASLGERVTMTCTASSSVNSSSLHWYQQKPGSSPKLWIYTTSNLASGVPARFSGSGSGTSYSLTISSMEAEDAATYYCHQFHRSPFTFGSGTKLEIKR
notes: Chimeric: murine variable regions on human IgG1 heavy and kappa light constant regions; also called chimeric antibody 32E8
B7: ch19C7 (antibody, human IgG1, kappa, V domains shown)
VH: EVQLQQSGPELVRPGASVRMSCKASGYTFTYYVMHWVKQKPGLGLEWIGYINPYNDGTEYNEKFKGKATLTSDKSSSTAFMELSSLTSEDSAVYYCARWLLREYAMDYWGQGTSVTVSS
VL: DIQMTQSPASLSASVGETVTITCRASDNIHNYLAWYQQKQGKSPQLLVYNAKTLADGVPSRFSGSGSGTQYSLKINSLQPEDFGSYYCQHFWSTPWTFGGGTKLEIKR
notes: Chimeric: murine variable regions on human IgG1 heavy and kappa light constant regions; also called chimeric antibody 19C7
B8: ch26D9 (antibody, human IgG1, kappa, V domains shown)
VH: EVQLQQSGPELVKPGASVKMSCKASGYTFTTYVMHWVKQKPGQGLEWIGYINPYNDDTNYNEKFKGKATLTSDKSSSTAYMELSSLTSEDSAVYYCARWGLTGTGDYYAMDYWGQGTSVTVSS
VL: B7 VL with D27G, I29V, K42R, L46V, Q79L, S93T, K103T
notes: Chimeric: murine variable regions on human IgG1 heavy and kappa light constant regions; also called chimeric antibody 26D9
B9: ch33F11 (antibody, human IgG1, kappa, V domains shown)
VH: EVQLQQSGPELVKPGASVKISCKTSGYTFTENTMHWVKQSHGESLEWIGGINPRNGVTSYNQKFKGKATLTVDKSSSTAYMELRSLTSEDSAVYYCTNTYYRDYFDYWGQGTTLTVSS
VL: NIVMTQSPKSMSMSVGERVTLSCKASENVGTYVSWYQQKPDQSPKLLIYGASNRYTGVPDRFTGSGSPTDFTLTISRMQAEDLAHYYCGQTYTYPLTFGAGTKLELKR
notes: Chimeric: murine variable regions on human IgG1 heavy and kappa light constant regions; also called chimeric antibody 33F11
B10: ch1A5 (antibody, human IgG1, kappa, V domains shown)
VH: B9 VH with N32S, T33A, E43K, R54N, V57G, T58I, N61S, T97G, N98S, T99S
VL: B9 VL with K9E, P68A, D70H, R77S, M78V, H85D, Y87H, T91S, T93S
notes: Chimeric: murine variable regions on human IgG1 heavy and kappa light constant regions, expressed in 293F cells; also called chimeric antibody 1A5

Columns and labels:
[1] = molecular target: T1, human DLL1 (purchased from Acro, …); test: ELISA on plate-coated human DLL1 protein (1 µg/ml), HRP goat anti-human secondary, OD 450 nm [left panel]
Procedure: (§1) The chimeric antibodies obtained in Example 6 were evaluated for their binding abilities to human DLL1 (purchased from Acro, DL1-H52H8) and DLL4 (purchased from Acro, DL4-H5227) proteins using the ELISA method. The ELISA detection method involved diluting DLL1 and DLL4 proteins with PBS to a final concentration of 1 μg/ml and coating them onto 384-well ELISA plates (purchased from Corning, 3700) at 4° C. overnight. The next day, the supernatant in the plate wells was discarded, and the wells were blocked with 80 μl of 3% milk (dissolved in PBS) for 2 hours, followed by washing three times with 80 μl of PBST (0.1% Tween20). […] After washing with 80 μl of PBST (0.1% Tween20) for five times, 25 μl of HRP-labeled goat anti-human secondary antibody (Jackson, 1:10000) was added to each well and incubated at room temperature for 1 hour, discard the supernatant, and the wells were then washed seven times with 80 μl of PBST (0.1% Tween20). After adding 25 μl of TMB chromogen solution for 10 minutes, the reaction was terminated with 2M HCl, and the absorbance value at 450 nm was measured with a Microplate reader (purchased from Biotek, Elx808). […] To assess the cross-reactivity of the antibodies with mouse and monkey DLL3, mouse DLL3-expressing plasmid pCMV3-mDLL3 (purchased from Beijing Yiqiao, MG58052-UT) and monkey DLL3-expressing plasmid pCMV3-rheDLL3 (purchased from Beijing Yiqiao, CG90919-UT) were used to construct overexpressing cell lines. The construction of overexpressing cells was as described in Examples 2-3. The binding abilities of the chimeric antibodies to these cells were determined by flow cytometry to assess the cross-reactivity of the antibodies with different species.

[2] = molecular target: T3, human DLL4 (purchased from Acro, DL4-H5227) (human, UniProt Q9NR61 27-524); test: ELISA on plate-coated human DLL4 protein (1 µg/ml), HRP goat anti-human secondary, OD 450 nm [right panel]
T3 construct: Bought; also called hDLL4
T3 sequence (Q9NR61 27-524 limits assumed): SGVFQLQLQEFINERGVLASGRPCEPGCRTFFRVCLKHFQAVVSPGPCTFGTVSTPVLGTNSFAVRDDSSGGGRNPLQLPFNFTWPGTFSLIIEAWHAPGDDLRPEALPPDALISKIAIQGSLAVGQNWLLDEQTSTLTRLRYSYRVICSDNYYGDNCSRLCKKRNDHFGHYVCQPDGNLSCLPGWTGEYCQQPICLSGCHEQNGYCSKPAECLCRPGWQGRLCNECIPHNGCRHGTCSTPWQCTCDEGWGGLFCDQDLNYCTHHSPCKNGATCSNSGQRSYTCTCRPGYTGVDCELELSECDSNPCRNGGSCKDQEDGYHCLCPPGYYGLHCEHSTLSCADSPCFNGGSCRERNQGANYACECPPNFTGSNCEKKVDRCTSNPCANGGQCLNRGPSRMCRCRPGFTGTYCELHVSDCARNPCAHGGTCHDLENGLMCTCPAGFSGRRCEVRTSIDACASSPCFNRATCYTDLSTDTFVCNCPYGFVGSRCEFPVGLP
Procedure: as §1

[3] = molecular target: T3, human DLL4 (purchased from Acro, …); test: ELISA, plate-coated protein 1 µg/ml
Procedure: as §1

[4] = molecular target: T2, mouse DLL3 on overexpressing cells …; test: flow cytometry on cells overexpressing mouse DLL3, APC goat anti-human IgG, MFI [left panel]
Procedure: After washing with 80 μl of PBST (0.1% Tween20) for five times, 25 μl of HRP-labeled goat anti-human secondary antibody (Jackson, 1:10000) was added to each well and incubated at room temperature for 1 hour, discard the supernatant, and the wells were then washed seven times with 80 μl of PBST (0.1% Tween20). After adding 25 μl of TMB chromogen solution for 10 minutes, the reaction was terminated with 2M HCl, and the absorbance value at 450 nm was measured with a Microplate reader (purchased from Biotek, Elx808). […] The binding abilities of the chimeric antibodies to these cells were determined by flow cytometry to assess the cross-reactivity of the antibodies with different species. […] The chimeric antibodies, FDA027, and FDA031 were pre-diluted to 50 μg/ml, and further diluted in a 4-fold gradient across 8 concentration points, with 200 μL of the antibodies to be detected of different concentrations added to each well and incubated on ice for 30 minutes. […] After washing with PBS four times, 100 μL PBS was added to each well to resuspend the cells, which were then analyzed using CytoFLEX (Beckman).

Row | binding result [1] | binding result [2] | binding result [3] | binding result [4] | Binder
1 | no binding (tested: 20 µg/ml) | binds | – | – | B1
2 | no binding (tested: 20 µg/ml) | – | no binding (tested: up to 20 µg/ml) | – | B2
3 | no binding (tested: 20 µg/ml) | – | no binding (tested: up to 20 µg/ml) | – | B3
4 | no binding (tested: 20 µg/ml) | no binding (tested: 20 µg/ml) | – | – | B4
5 | no binding (tested: 20 µg/ml) | no binding (tested: 20 µg/ml) | – | no binding (tested: 50 µg/ml) | B5
6 | no binding (tested: 20 µg/ml) | no binding (tested: 20 µg/ml) | – | no binding (tested: 50 µg/ml) | B6
7 | no binding (tested: 20 µg/ml) | no binding (tested: 20 µg/ml) | – | – | B7
8 | no binding (tested: 20 µg/ml) | no binding (tested: 20 µg/ml) | – | – | B8
9 | no binding (tested: 20 µg/ml) | no binding (tested: 20 µg/ml) | – | – | B9
10 | no binding (tested: 20 µg/ml) | no binding (tested: 20 µg/ml) | – | – | B10
